Measurements from PMC5856539.

Molecular target: GFP-tagged Ska complex (Ska complex^Ska3-GFP) (human) (UniProt Q96BD8)
Test: SEC-MALS

- stoichiometry N: 2
Substance: GFP-tagged Ska complex (Ska complex^Ska3-GFP) (from UniProt Q96BD8;Q8WVK7;Q8IX90)
